Experimental data as given in the supplement of paper PMC9170038.

What was measured:
[1] = tested on: MS2 coat protein; assay: apparent KD of MS2 coat protein, switch ON state; designed switch direction (-1 OFF switch, 1 ON switch): 1; higher = weaker reporter binding; conditions: FMN input: 0 or 200 uM; Eterna round: R93 (includes R88 designs)
How it was run: (§1)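 Titration buffer: 100 mM Tris-HCl pH 7.5, 80 mM KCl, 4 mM MgCl2, without or with constant ligand. Designed RNA switches transcribed on-chip from Illumina sequencing clusters received SNAP-549-labelled MS2 coat protein in twofold steps from 0.7 or 1.5 nM to 3 µM. Apparent KD is the median per design of fits to normalised cluster binding curves.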

[2] = tested on: MS2 coat protein; assay: apparent KD of MS2 coat protein, switch OFF state (with FMN for OFF switches, without FMN for ON switches); designed switch direction (-1 OFF switch, 1 ON switch): 1; higher = weaker reporter binding; conditions: FMN input: 0 or 200 uM; Eterna round: R93 (includes R88 designs)
How it was run: as §1

| Sequence | apparent KD of MS2 coat protein [1] | apparent KD of MS2 coat protein [2] |
| --- | --- | --- |
| AAUAUAUUAAGUGAGGAUAUCGAGGAAAAAACAUGAGGAUCACCCAUGUGGGAAACAUGGUCGGGUGAGAAGGCACUUAAUAUAU [Samwise Clockwise 25 - Jieux - Same State 2] | 125 nM | 326 nM |
| AAUCCAAAUAGUCAGGAUAUCAAAAAUAAGACAUGAGGAUCACCCAUGUAAUAAGUAAAAGUAAAUGAGAAGGGACAGGGUGAAA [JR_SS002_Sub401] | 398 nM | 92.8 nM |
| ACAAACAAAAAAGAGGAUAUCCUAAACAAAACAUGAGGAUCACCCAUGUAAAAAAAAAUAAAAUGGGAGAAGGCUUACAACAAAC [SS2 M 23] | 68 nM | 51.7 nM |
| ACUAGGAAGAGAGAGGAUAUCCAAAGGAAAACAUGAGGAUCACCCAUGUAAAAGGUAGGAAAUUGGGAGAAGGCUCAAGAGAGAG [salish99-ss2-085] | 22.9 nM | 24.4 nM |
| ACUAUACAUGAGGAUCACCCAUGUUAGGUGGGACUAGGAUAUCAAAAGCCAGAGUAAGAAUGAGAAGGAGUAGAAA [JR_SS001_Sub301] | 32.8 nM | 34.8 nM |
| AGAAAACAUGAGGAUCACCCAUGUAGAAACAUGGGAGGAUAUACAAAGACGAAAGUCAAAGUAGAAGGCCUAAAAA [Mat - Same State 1 - Mod - D163] | 75.7 nM | 140 nM |
| AGAAAACAUGAGGAUCACCCAUGUAGAAAUAUGGGAGGAUAUACAAAGACGAAAGUCAAAGUAGAAGGCCUAAAAG [Mat - Same State 1 - Eli mod - 35] | 23.2 nM | 78.3 nM |
| AGAAAACAUGAGGAUCACCCAUGUAGAAAUAUGGGAGGAUAUACGAAGACGAAAGUCAAAGUAGAAGGCCUAAGAA [Mat - Same State 1 - Eli mod - D108] | 18.8 nM | 51.7 nM |
| AGAAAACAUGAGGAUCACCCAUGUGACAAUAUGGGAGGAUAUACCAAGACGAAAGUCGAAGUAGAAGGCCUAAAGA [Garnet 51] | 22.9 nM | 69.8 nM |
| AGAAAUAAAACGAAGGAUAUCCAAAAUAAAACAUGAGGAUCACCCAUGUAAAAGAAAAUAAAGUGGGAGAAGGUCGAAAAUAAGA [Designing denovo 15] | 12 nM | 54.4 nM |
| AGAAAUAAAAGACAGGAUAUCCAAAACUCAACAUGAGGAUCACCCAUGUAAAAGAAAAUAAAAUGGGAGAAGGGUCAAAAUAAGA [Jieux modified + C segment V2] | 15.3 nM | 33.8 nM |
| AGAAAUAAAAGACAGGAUAUCCACUCAAAAACAUGAGGAUCACCCAUGUAAAAGAAAAUAAAAUGGGAGAAGGGUCAAAAUAAGA [Jieux modified + C segment V7] | 15.5 nM | 48.6 nM |
| AGAAAUAAAAGAGAGGAUAUCCAAAAAGGGACAUGAGGAUCACCCAUGUAAAAGAAAAUAAAAUGGGAGAAGGCUCAAAAUAAAG [80%, More Helter Skelter 2] | 97.3 nM | 120 nM |
| AGAAAUAAAAGAGAGGAUAUCCAAAAGAAAACAUGAGGAUCACCCAUGUAAAACAAAACAAAAUGGGAGAAGGCUCAAAAUAAGA [Topaz 15] | 19.8 nM | 31.4 nM |
| AGAAAUAAAGCUGAGGAUAUGGGUAAAUACACAUGAGGAUCACCCAUGUAAAAGAAAAUAAAAAACCAGAAGGCAGCAAAUAAGA [Designing denovo 4] | 23.4 nM | 30.8 nM |
| AGAAAUAAAGGAGAGGAUAUCCAAAAGAAAACAUGAGGAUCACCCAUGUAAAAGAAAAUAAAGUGGGAGAAGGCUUCAAAUAAGA [Starry modified V5] | 18.7 nM | 45.2 nM |
| AGAAAUAAAGGAGAGGAUAUUCAAAAAGGGACAUGAGGAUCACCCAUGUAAAAGAAAAUAAAAUGGGAGAAGGCUCUAAAUAAAG [80%, More Helter Skelter 2] | 49.6 nM | 47.2 nM |
| AGAAGACAUGAGGAUCACCCAUGUGCACGUGGAGGAGGAUAUGCUAGUAGAAGAUAGAAUGCAGAAGGCCUAAGAA [Mat - Mod] | 51.9 nM | 38.5 nM |
| AGAAGACAUGAGGAUCACCCAUGUGGGAUUAUGGGAGGAUAUACAAAGACGAGAGUCAGAGUAGAAGGCCUAGGAU [salish99-ss1-113(!)] | 24.7 nM | 70.8 nM |

| Sequence | apparent KD of MS2 coat protein [1] | apparent KD of MS2 coat protein [2] |
| --- | --- | --- |
| AGAUCUAGAAGGUAGGAUAUGUGAAAAAAAACAUGAGGAUCACCCAUGUGAUGAAUAAAAAGAAAAUAGAAGGACCAUCUAGAUC [Cross swing 1] | 16 nM | 59 nM |
| AGCGAACAUGAGGAUCACCCAUGUGAAAAACAUAGAGGAUAUGUCGCAUGCGUGUAAAAGACAGAAGGCUAUCGCG [Mat - Mod of Nando] | 24 nM | 52.1 nM |
| AGGAAACAUGAGGAUCACCCAUGUAAAAAAUAUGGAGGAUAUGCUAGAAGAAACAAAAUAGCAGAAGGCCAAAAAA [75%, Ex sub1, 23] | 13.7 nM | 24.7 nM |
| AGGAAACAUGAGGAUCACCCAUGUAAAAAUAACGCAGGAUAUGGAAACACGAAAGUGAAACCAGAAGGGUGAAAAG [77%, Mat - Mod of Eli, 14] | 18.9 nM | 29.8 nM |
| AGGAGACAUGAGGAUCACCCAUGUAGAAGGAUGGGAGGAUAUACAAAGACGAGAGUCAGAGUAGAAGGCCUAGGAA [salish99-ss1-182(!)] | 19.7 nM | 55.4 nM |
| AUAAAACAUGAGGAUCACCCAUGUAAAAAUAUGGAAGGAUAUACGUAGUAAAAUAAAUACGUAGAAGGUCCAAAAA [SS! MT 21] | 15 nM | 19.7 nM |
| AUAAAACAUGAGGAUCACCCAUGUAGAAAUAAGGGAGGAUAUACAAAGACGAAAGUCAAAGUAGAAGGCUCAAAAG [76%, Meechl 5] | 16.8 nM | 24.3 nM |
| AUAAAACAUGAGGAUCACCCAUGUAGACACAUGGGAGGAUAUACUAGAUCGAAAGAUCUAGUAGAAGGCCUUUGUA [Mat - Same State 1 - JL mod - D93] | 131 nM | 749 nM |
| AUAAAAGAAGCGAAGGAUAUCCAAAACCUAACAUGAGGAUCACCCAUGUAAAGAAAGAAAAAAUGGGAGAAGGUCGCAAAGAAUA [73%, More Fisker Same State 2, D3, 9] | 11.9 nM | 22.7 nM |
| AUAAAGAAAACACAGGAUAUCCAAAAGAAAACAUGAGGAUCACCCAUGUAAAGAAAAUAAAAAUGGGAGAAGGGUGAAAGAAAUA [Mat - Same State 2 - JL mod - D40] | 34.8 nM | 109 nM |
| AUAAAUAAAAGCAAGGAUAUCCAAAAGAAAACAUGAGGAUCACCCAUGUAAAAGAAAAUAAAAUGGGAGAAGGUGCAAAAUAAAU [viburnum 8] | 14.8 nM | 27.5 nM |
| AUACUGGAGGACAAGGAUAUGUGCUCCACGACAUGAGGAUCACCCAUGUGCGACGUGGUAGUGAAACAGAAGGUGUCCUAUUGUA [Edonisve] | 13.1 nM | 17.7 nM |
| AUAUAUAAAAGGUAGGAUAUUCUAAAAUAAACAUGAGGAUCACCCAUGUAAAGAAAGAAACUCAUGGAGAAGGACCAUAUAUAUA [ss2 5th modifying Eli's mod of Tesla] | 45.6 nM | 156 nM |
| AUAUAUAUAAGACAGGAUAUCCUAAAGUAAACAUGAGGAUCACCCAUGUAAAGAAAGAAACUCAUGGAGAAGGGUCAAUAUAUAU [Mat - Same State 2 - Tesla mod - D81] | 14.1 nM | 48.6 nM |
| AUAUAUAUAAGGUAGGAUAUCCAAAAAUAAACAUGAGGAUCACCCAUGUCCAUAAAGAAUAAAUGGGAGAAGGACCAUAUAUAUA [viburnum 9] | 28.5 nM | 48.6 nM |
| AUAUAUAUAAGGUAGGAUAUCCAAAAAUCCACAUGAGGAUCACCCAUGUAAAGAAAGAAAAAAUGGGAGAAGGACCAUAUAUAUA [77%, More Tesla, 6] | 16.9 nM | 31.9 nM |
| AUAUAUAUAAGGUAGGAUAUCCAAUAAUCCACAUGAGGAUCACCCAUGUAAAGAAAGAAAAAGUGGGAGAAGGGCCAUAUAUAUA [viburnum 7] | 17.4 nM | 48.4 nM |
| AUGAAUAGAAUCGAGGAUAUCCAGUCAUGAACAUGAGGAUCACCCAUGUAAGAGAGAGUAUAAUGGGAGAAGGCGAGUAAUAGAU [JR_SS002_Sub1702] | 27 nM | 84.5 nM |
| AUUAAAUAUAGUUAGGAUAUAAUAUGUAAGACAUGAGGAUCACCCAUGUCCUAAGAAUAGUUAAAUUAGAAGGAACAGUGAAUAU [JR_SS002_Sub420] | 24.1 nM | 24.5 nM |
